Experimental data reported in article PMC12510028, “A biophysical and molecular characterization of the interaction between the Alzheimer risk factor BIN1 and the neuronal scaffold protein p140Cap” (The Journal of Biological Chemistry, 2025).

System: p140Cap
Test: GST pull-down from mouse brain homogenate, p140Cap captured
Format: binding
Conditions: percent pulldown relative to input, two independent experiments, unpaired t test p = 0.0035
Procedure: For these experiments, we prepared glutathione S-transferase (GST) control and GST-tagged BIN1-SH3 domain fusion proteins coupled to glutathione-Sepharose and incubated them with mouse brain homogenates to capture bound proteins. Western blot analysis confirmed that p140Cap from the brain extract bound specifically to the BIN1-SH3 fusion protein, but not to the GST control (Fig. 7A).
To further investigate the contributions of electrostatic interactions in BIN1 SH3 domain–mediated protein binding, we conducted GST pull-down assays with mutant BIN1 SH3 domain constructs that lacked charged residues. […]
We used a previously published method with some modifications ([22]). […] The samples were analyzed by immunoblotting with antibodies against total tau (Dako #A0024; 1:1000) and p140Cap (Defilippi’s lab mAb; 1:2000) ([44]). After incubation with infrared dye–conjugated secondary antibodies, signals were recorded using the Odyssey infrared imaging system (LI-COR Biosciences) and quantified with ImageStudio6.0. The % GST pulldown was calculated by comparing signal intensities of p140Cap or tau in the input (10 μg) with the corresponding pull-down signal intensity from 0.5 mg protein and then multiplying by 100.

B1: BIN1-SH3 fusion protein: GST-tagged WT human BIN1-SH3 domain fusion protein coupled to glutathione-Sepharose (protein)
chain: GFMFKVQAQHDYTATDTDELQLKAGDVVLVIPFQNPEEQDEGWLMGVKESDWNQHKELEKCRGVFPENFTERVP
modifications: left off: 6xHis, N-terminal, state not stated | GST, N-terminal, kept
notes: GST-tagged WT human BIN1-SH3 domain fusion protein coupled to glutathione-Sepharose
For B1, the “fold more p140Cap captured than tau” value was ~9.4 fold.
